Targets include HLA-B*40:02; HLA-B*40:01; HLA-B*44:03; HLA-B*18:01; HLA-B*44:02; HLA-B*45:01; HLA-B*15:03.
What all share (test): IEDB peptide-MHC binding, purified MHC/competitive/radioactivity; filed as Kd, often an IC50 or EC50 that approximates it; ≥ and ≤ were set here for values at or beyond the usual limits of such assays
Setting [1] is: source organism: SARS coronavirus Tor2.
Where [2] appears, read: source organism: Vaccinia virus WR.
[3] abbreviates: source organism: Mammarenavirus lassaense.
Where [4] appears, read: source organism: Mammarenavirus whitewaterense.
Setting [5] is: source organism: Mammarenavirus choriomeningitidis.
Setting [6] is: source organism: Mammarenavirus guanaritoense.
Where [7] appears, read: source organism: Lymphocytic choriomeningitis virus (strain Armstrong).
[8] abbreviates: source organism: Mammarenavirus machupoense.

Turning to FELTSMKYF, the Kd – broadly, the free concentration of one partner at which half of the binding sites on the other are occupied at equilibrium, for simple one-to-one binding – was 2.32 µM with HLA-B*40:02 (setting [1]); 10.7 µM with HLA-B*40:01 (setting [1]); 0.161 µM with HLA-B*44:03 (setting [1]); 3.72 µM with HLA-B*18:01 (setting [1]); 0.0927 µM in the assay with HLA-B*44:02 (setting [1]); at least 33.9 µM with HLA-B*45:01 (setting [1]).

For FISRNKNIF, the Kd with HLA-B*15:03 (setting [2]) was 4.03 µM.

On to FKVTTRRSI, for which the Kd in the assay with HLA-B*15:03 (setting [2]) came out at 0.00457 µM.

In the case of IEEIMNIVLI, the Kd in the assay with HLA-B*40:02 (setting [3]) was found to be 0.0984 µM; with HLA-B*40:01 (setting [3]), 1.81 µM; with HLA-B*44:03 (setting [3]), 0.445 µM; with HLA-B*18:01 (setting [3]) it was 3.15 µM; in the assay with HLA-B*44:02 (setting [3]), 0.151 µM; with HLA-B*45:01 (setting [3]), 1.3 µM.

As to KELSPRWYFY, the equilibrium dissociation constant (Kd) was found to be 0.309 µM with HLA-B*40:02 (setting [1]); 8.57 µM with HLA-B*40:01 (setting [1]); 0.0126 µM with HLA-B*44:03 (setting [1]); 6.75 µM with HLA-B*18:01 (setting [1]); 0.00979 µM with HLA-B*44:02 (setting [1]); 4.23 µM in the assay with HLA-B*45:01 (setting [1]).

LDIQKCGEL: the dissociation constant (Kd) was 9.66 µM in the assay with HLA-B*40:02 (setting [4]); at least 46.7 µM with HLA-B*40:01 (setting [4]); at least 78.1 µM with HLA-B*44:03 (setting [4]); at least 53.2 µM in the assay with HLA-B*18:01 (setting [4]); at least 77.9 µM with HLA-B*44:02 (setting [4]); at least 56.9 µM with HLA-B*45:01 (setting [4]).

With METMFFIRF, the dissociation constant Kd with HLA-B*15:03 (setting [2]) came to 0.0526 µM.

NDSILSHNF: the equilibrium dissociation constant (Kd) is 5.93 µM in the assay with HLA-B*40:02 (setting [5]); at least 76.1 µM with HLA-B*40:01 (setting [5]); 11.4 µM with HLA-B*44:03 (setting [5]); 0.423 µM with HLA-B*18:01 (setting [5]); 0.182 µM with HLA-B*44:02 (setting [5]); at least 77.7 µM with HLA-B*45:01 (setting [5]).

As to PEFDWILGW, the dissociation constant Kd was at least 22 µM with HLA-B*40:02 (setting [6]); at least 76.1 µM with HLA-B*40:01 (setting [6]); 0.0274 µM in the assay with HLA-B*44:03 (setting [6]); 5.12 µM in the assay with HLA-B*18:01 (setting [6]); 0.212 µM with HLA-B*44:02 (setting [6]); at least 77.7 µM with HLA-B*45:01 (setting [6]).

With RDLVISDSS, the dissociation constant (Kd) with HLA-B*40:02 (setting [6]) was 2.49 µM; in the assay with HLA-B*40:01 (setting [6]), at least 53.4 µM; in the assay with HLA-B*44:03 (setting [6]), at least 35.8 µM; in the assay with HLA-B*18:01 (setting [6]), at least 77.5 µM; with HLA-B*44:02 (setting [6]), at least 77.9 µM; in the assay with HLA-B*45:01 (setting [6]), at least 77.7 µM.

Regarding REPVDQKQF, the equilibrium dissociation constant (Kd) with HLA-B*40:02 (setting [7]) was 11.9 µM; with HLA-B*40:01 (setting [7]) it was at least 40.5 µM; in the assay with HLA-B*44:03 (setting [7]) it was 7.92 µM; in the assay with HLA-B*18:01 (setting [7]), at least 47.6 µM; in the assay with HLA-B*44:02 (setting [7]), 1.63 µM; with HLA-B*45:01 (setting [7]), at least 77.7 µM.

SEILKTLGF: the Kd with HLA-B*40:02 (setting [8]) came out at 0.165 µM; with HLA-B*40:01 (setting [8]), 1 µM; in the assay with HLA-B*44:03 (setting [8]), 0.0141 µM; with HLA-B*18:01 (setting [8]), 0.655 µM; with HLA-B*44:02 (setting [8]), 0.00421 µM; in the assay with HLA-B*45:01 (setting [8]), 1.61 µM.

As for SEMVMCGGSL, the dissociation constant (Kd) with HLA-B*40:02 (setting [1]) is 1.02 µM; with HLA-B*40:01 (setting [1]), 0.000475 µM; with HLA-B*44:03 (setting [1]), 0.0123 µM; with HLA-B*18:01 (setting [1]), 0.355 µM; with HLA-B*44:02 (setting [1]), 0.00224 µM; with HLA-B*45:01 (setting [1]) it was 0.0163 µM.

On to SLNECIISF, for which the dissociation constant (Kd) in the assay with HLA-B*15:03 (setting [2]) was found to be 0.0669 µM.

On to SMVQILSSL, for which the Kd with HLA-B*15:03 (source organism: Vaccinia virus Copenhagen) is at least 77.2 µM.

Regarding TERLKLFAA, the Kd is 0.024 µM with HLA-B*40:02 (setting [1]); 19.2 µM with HLA-B*40:01 (setting [1]); at least 41.2 µM with HLA-B*44:03 (setting [1]); 0.301 µM in the assay with HLA-B*18:01 (setting [1]); at least 65.8 µM with HLA-B*44:02 (setting [1]); 0.00473 µM with HLA-B*45:01 (setting [1]).

As to VELVAEMDG, the dissociation constant Kd in the assay with HLA-B*40:02 (setting [1]) was at least 77.3 µM; with HLA-B*40:01 (setting [1]), at least 76.2 µM; with HLA-B*44:03 (setting [1]) it was at least 24.5 µM; in the assay with HLA-B*18:01 (setting [1]), at least 28.3 µM; with HLA-B*44:02 (setting [1]), 10.6 µM; with HLA-B*45:01 (setting [1]), at least 29.4 µM.

For VEYPIIGDEL, the Kd with HLA-B*40:02 (setting [1]) was 0.5 µM; in the assay with HLA-B*40:01 (setting [1]), 0.00504 µM; in the assay with HLA-B*44:03 (setting [1]), 0.282 µM; in the assay with HLA-B*18:01 (setting [1]), 15.2 µM; in the assay with HLA-B*44:02 (setting [1]) it was 4.81 µM; in the assay with HLA-B*45:01 (setting [1]), 2.23 µM.

Take VQTIVFIWF: in the assay with HLA-B*15:03 (source organism: Vaccinia virus), the dissociation constant (Kd) was 0.306 µM.

As for WEIQQVVDA, the Kd is 0.0543 µM in the assay with HLA-B*40:02 (setting [1]); 1.03 µM with HLA-B*40:01 (setting [1]); 9.04 µM with HLA-B*44:03 (setting [1]); 4.92 µM with HLA-B*18:01 (setting [1]); at least 30.3 µM with HLA-B*44:02 (setting [1]); 0.135 µM with HLA-B*45:01 (setting [1]).

For the origin of these results see the Immune Epitope Database (IEDB).
